# Assay results from patent publication US11325966.
# Columns and labels:
# Test in all cases: cell-based or functional assay
# [1] = target: HIV-1 Env of pseudovirus T251-18 (HIV-1)
# [2] = target: HIV-1 Env of pseudovirus 89-F1_2_25 (HIV-1)
# [3] = target: HIV-1 Env of pseudovirus T255-34 (HIV-1)
# [4] = target: HIV-1 Env of pseudovirus WITO4160.33 (HIV-1)
# [5] = target: HIV-1 Env of pseudovirus BF1266.431a (HIV-1)
# [6] = target: HIV-1 Env of pseudovirus CNE5 (HIV-1)
# [7] = target: HIV-1 Env of pseudovirus PVO.4 (HIV-1)
# [8] = target: HIV-1 Env of pseudovirus SC422661.8 (HIV-1)
# [9] = target: HIV-1 Env of pseudovirus HIV-16055-2.3 (HIV-1)
# [10] = target: HIV-1 Env of pseudovirus 1006_11_C3_1601 (HIV-1)
# [11] = target: HIV-1 Env of pseudovirus CAP210.2.00.E8 (HIV-1)
# [12] = target: HIV-1 Env of pseudovirus ZM53M.PB12 (HIV-1)
# [13] = target: HIV-1 Env of pseudovirus 3103.v3.c10 (HIV-1)
# [14] = target: HIV-1 Env of pseudovirus 249M B10 (HIV-1)
# [15] = target: HIV-1 Env of pseudovirus 6240_08_TA5_4622 (HIV-1)
# [16] = target: HIV-1 Env of pseudovirus CAAN5342.A2 (HIV-1)
# [17] = target: HIV-1 Env of pseudovirus 1056_10_TA11_1826 (HIV-1)
# [18] = target: HIV-1 Env of pseudovirus CNE52 (HIV-1)
# [19] = target: HIV-1 Env of pseudovirus 0815.v3.c3 (HIV-1)
# [20] = target: HIV-1 Env of pseudovirus 62357_14_D3_4589 (HIV-1)
# [21] = target: HIV-1 Env of pseudovirus X2131_C1_B5 (HIV-1)
# [22] = target: HIV-1 Env of pseudovirus X2088_c9 (HIV-1)
# [23] = target: HIV-1 Env of pseudovirus CNE58 (HIV-1)
# [24] = target: HIV-1 Env of pseudovirus CAP45.2.00.G3 (HIV-1)
# [25] = target: HIV-1 Env of pseudovirus 235-47 (HIV-1)
# [26] = target: HIV-1 Env of pseudovirus T250-4 (HIV-1)
# [27] = target: HIV-1 Env of pseudovirus BJOX009000.02.4 (HIV-1)
# [28] = target: HIV-1 Env of pseudovirus THRO4156.18 (HIV-1)
# [29] = target: HIV-1 Env of pseudovirus Ce704809221_1B3 (HIV-1)
# [30] = target: HIV-1 Env of pseudovirus P1981_C5_3 (HIV-1)
# [31] = target: HIV-1 Env of pseudovirus 6545.v4.c1 (HIV-1)
# [32] = target: HIV-1 Env of pseudovirus T278-50 (HIV-1)
# [33] = target: HIV-1 Env of pseudovirus CNE20 (HIV-1)
# [34] = target: HIV-1 Env of pseudovirus AC10.0.29 (HIV-1)
# [35] = target: HIV-1 Env of pseudovirus 211-9 (HIV-1)
# [36] = target: HIV-1 Env of pseudovirus SC05_8C11_2344 (HIV-1)
# [37] = target: HIV-1 Env of pseudovirus 9004SS_A3_4 (HIV-1)
# [38] = target: HIV-1 Env of pseudovirus BJOX025000.01.1 (HIV-1)
# [39] = target: HIV-1 Env of pseudovirus WEAU_d15_410_787 (HIV-1)
# [40] = target: HIV-1 Env of pseudovirus ZM233M.PB6 (HIV-1)
substance,measurement,setting,value
PGT121 (antibody),IC50 in TZM-bl assay,[1],5.18 µg/mL
same,IC80 in TZM-bl assay,[1],> 10 µg/mL
same,IC50 in TZM-bl assay,[2],> 10 µg/mL
same,IC80 in TZM-bl assay,[2],> 10 µg/mL
same,IC50 in TZM-bl assay,[3],2.63 µg/mL
same,IC80 in TZM-bl assay,[3],> 10 µg/mL
same,IC50 in TZM-bl assay,[4],0.301 µg/mL
same,IC80 in TZM-bl assay,[4],3.2 µg/mL
same,IC50 in TZM-bl assay,[5],> 10 µg/mL
same,IC80 in TZM-bl assay,[5],> 10 µg/mL
same,IC50 in TZM-bl assay,[6],> 10 µg/mL
same,IC80 in TZM-bl assay,[6],> 10 µg/mL
same,IC50 in TZM-bl assay,[7],0.094 µg/mL
same,IC80 in TZM-bl assay,[7],0.45 µg/mL
same,IC50 in TZM-bl assay,[8],0.079 µg/mL
same,IC80 in TZM-bl assay,[8],0.373 µg/mL
same,IC50 in TZM-bl assay,[9],0.772 µg/mL
same,IC80 in TZM-bl assay,[9],7.99 µg/mL
same,IC50 in TZM-bl assay,[10],0.002 µg/mL
same,IC80 in TZM-bl assay,[10],0.008 µg/mL
same,IC50 in TZM-bl assay,[11],> 10 µg/mL
same,IC80 in TZM-bl assay,[11],> 10 µg/mL
same,IC50 in TZM-bl assay,[12],0.001 µg/mL
same,IC80 in TZM-bl assay,[12],0.005 µg/mL
same,IC50 in TZM-bl assay,[13],0.024 µg/mL
same,IC80 in TZM-bl assay,[13],0.073 µg/mL
same,IC50 in TZM-bl assay,[14],> 10 µg/mL
same,IC80 in TZM-bl assay,[14],> 10 µg/mL
same,IC50 in TZM-bl assay,[15],0.068 µg/mL
same,IC80 in TZM-bl assay,[15],0.231 µg/mL
same,IC50 in TZM-bl assay,[16],0.008 µg/mL
same,IC80 in TZM-bl assay,[16],0.026 µg/mL
same,IC50 in TZM-bl assay,[17],0.034 µg/mL
same,IC80 in TZM-bl assay,[17],0.148 µg/mL
same,IC50 in TZM-bl assay,[18],4.91 µg/mL
same,IC80 in TZM-bl assay,[18],> 10 µg/mL
same,IC50 in TZM-bl assay,[19],0.017 µg/mL
same,IC80 in TZM-bl assay,[19],0.085 µg/mL
same,IC50 in TZM-bl assay,[20],6.21 µg/mL
same,IC80 in TZM-bl assay,[20],> 10 µg/mL
same,IC80 in TZM-bl assay,[21],0.037 µg/mL
same,IC50 in TZM-bl assay,[22],0.007 µg/mL
same,IC50 in TZM-bl assay,[23],> 10 µg/mL
same,IC80 in TZM-bl assay,[23],> 10 µg/mL
same,IC50 in TZM-bl assay,[24],1.3 µg/mL
same,IC80 in TZM-bl assay,[24],> 10 µg/mL
same,IC50 in TZM-bl assay,[25],0.259 µg/mL
same,IC80 in TZM-bl assay,[25],1.6 µg/mL
same,IC50 in TZM-bl assay,[26],0.003 µg/mL
same,IC80 in TZM-bl assay,[26],0.009 µg/mL
same,IC50 in TZM-bl assay,[27],9 µg/mL
same,IC80 in TZM-bl assay,[27],> 10 µg/mL
same,IC50 in TZM-bl assay,[28],> 10 µg/mL
same,IC80 in TZM-bl assay,[28],> 10 µg/mL
same,IC50 in TZM-bl assay,[29],0.043 µg/mL
same,IC80 in TZM-bl assay,[29],0.285 µg/mL
same,IC50 in TZM-bl assay,[30],0.002 µg/mL
same,IC80 in TZM-bl assay,[30],0.009 µg/mL
same,IC50 in TZM-bl assay,[31],> 10 µg/mL
same,IC80 in TZM-bl assay,[31],> 10 µg/mL
same,IC50 in TZM-bl assay,[32],> 10 µg/mL
same,IC80 in TZM-bl assay,[32],> 10 µg/mL
same,IC50 in TZM-bl assay,[33],0.003 µg/mL
same,IC80 in TZM-bl assay,[33],0.006 µg/mL
same,IC50 in TZM-bl assay,[34],0.019 µg/mL
same,IC80 in TZM-bl assay,[34],0.06 µg/mL
same,IC50 in TZM-bl assay,[35],0.866 µg/mL
same,IC80 in TZM-bl assay,[35],6.63 µg/mL
same,IC50 in TZM-bl assay,[36],0.03 µg/mL
same,IC80 in TZM-bl assay,[36],0.108 µg/mL
same,IC50 in TZM-bl assay,[37],0.006 µg/mL
same,IC50 in TZM-bl assay,[38],> 10 µg/mL
same,IC80 in TZM-bl assay,[38],> 10 µg/mL
same,IC50 in TZM-bl assay,[39],0.017 µg/mL
same,IC80 in TZM-bl assay,[39],0.062 µg/mL
same,IC50 in TZM-bl assay,[40],2.81 µg/mL
same,IC80 in TZM-bl assay,[40],> 10 µg/mL
